Our source for the effective Kd of the LD1 motif, effective Kd of the LD2 motif and effective Kd of the LD4 motif values is PMC12175908.

The assay concerns the target Paxillin N-domain (residues 1 to 311) (human) (UniProt P49023). The assay can be described thus: NMR titration; 100 μM 15N-PXN N-domain, unlabeled FAT added (10 to 300 μM); 2D 1H-15N HSQC, decay of amide peak intensity per LD motif, fraction bound against total FAT; effective (relative) constants for single LD motifs; 100 mM potassium phosphate, 1 mM TCEP, 0.1 mM EDTA, pH 7.0, 10°C.
Sequence of UniProt P49023 (P49023 other isoform, or with tags, fused parts or gaps): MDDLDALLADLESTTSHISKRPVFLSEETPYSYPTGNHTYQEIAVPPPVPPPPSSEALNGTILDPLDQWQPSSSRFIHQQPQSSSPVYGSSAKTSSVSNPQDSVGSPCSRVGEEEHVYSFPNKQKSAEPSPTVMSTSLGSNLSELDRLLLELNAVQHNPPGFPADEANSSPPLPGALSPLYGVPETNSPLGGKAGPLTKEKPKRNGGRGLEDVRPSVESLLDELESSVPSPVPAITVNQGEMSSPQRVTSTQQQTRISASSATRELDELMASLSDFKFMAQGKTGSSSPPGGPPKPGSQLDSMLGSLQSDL

For “focal adhesion targeting (FAT) domain of focal adhesion kinase (domain or fragment)”, the effective Kd of the LD1 motif was 17 µM, the effective Kd of the LD2 motif was 7000 µM and the effective Kd of the LD4 motif came out at 13 µM.
